This is an account of results in the domain aggregation screens of Martell et al. (2025).

The series can be described thus: soluble fraction after stress (log2 fold change); higher = more stays soluble; pooled small domains, quantitative proteomics. Particulars: stress: 50 degC. The method in brief: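 After stress at 50°C, the amount of each protein still soluble was measured. This was done on pooled custom libraries of small protein domains, using high-throughput quantitative proteomics. The figure given is a base-two log fold change and stands for aggregation propensity, with higher values meaning more protein stays in solution.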
With “HMLNLNEAEKSIYVLIKKNESNNLNKVKEDSNLSNKAWDKGIKNLVKNNLVKVVKSNEGLFIQLV”, the “soluble fraction (log2)” value was -0.345.

Turning to “HMLNLNILTDKEKFIAKLISRGLSDSLIAKELYISISTVRSHVNSIYGKTNIKNRSHLASSFLYFELGNLL”, the “soluble fraction (log2)” value is -0.135.

On to “HMLNPMILLTKGGENIRLDKFLSSHLSDLSRTQIQKMVKEGLVLVNGEPSKVGLKLDGSETIQYTLPK”, for which the “soluble fraction (log2)” value is -0.00634.

“HMLNSISIKTNKKIDFLEKNEHLVNFVYEKETMEHIYNLSYENKKDLQELQNKLSDIEGIIKINTDL”: the “soluble fraction (log2)” value stood at 0.133.

With “HMLPDVSITGHIFIRSGSRLNRIFVGESTYHVGDMLDGKWLIESINSDSLELRSGTQTTELPL”, the “soluble fraction (log2)” value was -2.58.

“HMLPDYLIELKKKADSGDAVSQNDIGNIYLYGLPRVNIYPDEKNIGIGIDYLYKAAWQDQVNAMTTI”: the “soluble fraction (log2)” value is -0.0456.

As for “HMLPELQPGQTFSARIQQALPDNTYRALVAGKQLTLQLPEGAKAGDELELVVLDRSARVIIARQVD”, the “soluble fraction (log2)” value is -0.146.

For the sequence “HMLPGERFKVKIAQAGKEKKQGIGYLNDGTMVVIENGIEKVGEEVEAVVIKVIQSSAGKIIFSEVAK”, the “soluble fraction (log2)” value was 0.195.

Turning to “HMLPGKEIPLPEFLREAFARNEPALENFQNLAPSYRRQYILWITSAKTPETVQKRISESIGLLKENRKLGM”, the “soluble fraction (log2)” value turned out to be 0.0472.

Turning to “HMLPGLGPIERAQFMLQAIPGISPTRSAALIDKFGSIAGIAQASIKDIQTIEGIGKKTATTLYEVLNAG”, the “soluble fraction (log2)” value is -0.341.

As to “HMLPISGDDRDALDMAALILKQYDSLPILKEFANVVTKLQTVLDGVVSNSIEARRQMIQFEE”, the “soluble fraction (log2)” value was -0.0336.

As for “HMLPITPGQKYKFVVKSAEEAAAIIRDKLGEMAQVISVRQVEGEGLARFLKSPKLEIIAQVPVA”, the “soluble fraction (log2)” value was -0.132.

For “HMLPLGSNEYETAVIKHLASGVQDADEIQRLTGIDQTSLNTALTMLELAGTIRPLGNNHWTL”, the “soluble fraction (log2)” value is 0.167.

For “HMLPLHFIEIVSLKKIDTLTKRKELINYAFSKNEKTYIYKLAFKKKSELDNLYKEINLFNEIINIDIRHS”, the “soluble fraction (log2)” value was -0.615.

Take “HMLPLPRFASLDSSEANLRAGPGKDYPILWVYQRKGLPVEIIQEFDTWRRIRDRDGTVGWVQQNLL”: the “soluble fraction (log2)” value was -0.405.

Regarding “HMLPNIKSEMEILGDNAKARLEAAELWSKKYLSNEAYDTMSKLATTADGVKAIEEIMNITKS”, the “soluble fraction (log2)” value is -0.0779.

For the sequence “HMLPSELLAQQRIVVQPGHNLWRIARATYGRGARYTVIYQANREQIADPNRIFPGQVFALPAA”, the “soluble fraction (log2)” value was -0.121.

For the sequence “HMLPSMENWLGELSFWQTPWWERRDFSTFDNIAQSKEELDEFMSRDDNGAILERMQDPINTIEAE”, the “soluble fraction (log2)” value was -0.46.

Turning to “HMLQGKVSFFNDEKGYGFIKDNNSKDSYFVHINKVEGEIAEGDKVTFELEKGPKGLVAANVKR”, the “soluble fraction (log2)” value was 0.184.

Regarding “HMLQIGDEEFIENIVKQVIDENQKAVDDYKKGKEKVMAFLIGQVMKKTKGKVNSEIVEKTIKKL”, the “soluble fraction (log2)” value is -0.262.

Take “HMLQKEVHQQIQQALRALPYHQRTAIVLYYYEGMSVKEIAQATGSMQGTVQSRLFFARKKLRPILESILKK”: the “soluble fraction (log2)” value is -0.453.

As to “HMLQQNRAVEAEQLARKGLSYAQSNIQQAALWRLVAEATEQQGKVDAALNAKNKAMQLEMAG”, the “soluble fraction (log2)” value was 0.173.

As to “HMLRTLSTSEFAEAIGISESSARRLADSGDLRIRRTKGGHRKIPAEEAIRYAREIQATVVRPDLLGLST”, the “soluble fraction (log2)” value turned out to be 0.0109.

On to “HMLRVVSTRQAFDIVRGWADAHPQDPEHNKTLDELEELAKKEVWDDWSRTNEIAERLNALLVSIGANVRTA”, for which the “soluble fraction (log2)” value was -0.742.

For “HMLSDEEKMAALNEQARQRGFTISPGVLPYLITHYQRDMHSLSMILDALDRYSLQTKRTITLPLLHDLLQQ”, the “soluble fraction (log2)” value was -1.06.

For the sequence “HMLSKEFRFFTYLLESYAQHKNTTAGAVLKTLDEKGLTDFVYKMYDLYHVEAIENAYMDLDSLIATGKPA”, the “soluble fraction (log2)” value is -2.98.

“HMLSKGDRVSWDTPQGRTQGEVVEKKTKDFEHDGQKFTASDDDPAFIVKSEKSGAEAAHKGSALNK”: the “soluble fraction (log2)” value is 0.0884.

Turning to “HMLSLGIMEADMLKTGKHTISGISKATPEQRQKIDSDIEELKKKYPEKNITSKVENDNLIVESGVTAP”, the “soluble fraction (log2)” value was 0.278.

For “HMLSNKIEQLRKEKGYTFAKLSELSGISTGRLSDLATGKRNNPTMDTLIKLADALDVTLDELVGR”, the “soluble fraction (log2)” value was found to be 0.14.

Turning to “HMLSNYIGMTLGEAKRNLGQGVNITVNGPNNDNAEVTGQDPTSGSSFDKSKDTITLTT”, the “soluble fraction (log2)” value stood at 0.0581.

For “HMLSPAQSLLLRTAARRPDGRVIPPDTLRGGARVKVLTSLLQRGWIEPVDGGHVLTDAGYAAIG”, the “soluble fraction (log2)” value is -0.353.

As for “HMLSTNDYNENKNKLIKDFEIKFIIKHLKLNKGNVAATARSINFHPVSLRQKIAKLGIDVDEVMAG”, the “soluble fraction (log2)” value was -1.84.

Take “HMLSTQEYIKKNIENGSWKVGEKIPSENNLTEILGVSRASIRVAIQQFIALDVLNSIHGKGTFVKTNNIMG”: the “soluble fraction (log2)” value stood at 0.256.

For the sequence “HMLTALTDREEEILVLLAHNLSNKEIAKRLNLSVNTVRNHTSHIYEKLNVTSRRKAITLAQSLHLLPP”, the “soluble fraction (log2)” value is -1.35.

For the sequence “HMLTAPMPGIVRQVNVDTGQKVRKGQPLMVLEAMKMEHQIIAPQAGKIEAIHYNEGDRVEMGSVLISIF”, the “soluble fraction (log2)” value was -0.0961.

With “HMLTAPMPGIVTEILVKEGQRVRSGQPLMILEAMKMEHQVTAPKSGQIEKIYFSEGEKVDMGSDLLSIS”, the “soluble fraction (log2)” value was found to be 0.181.

As for “HMLTEEVEISLMDMTKPTQPATIKTTATIQKGATTVMPKQIKMPEGYEFYGNYKMDQPFELTMTFVVKKI”, the “soluble fraction (log2)” value is 0.115.

Regarding “HMLTGESDNVEKSINKLGTENLALADQTNMGFKGTFINSGHGMAIVVKTGMQTELGKIASMIQIA”, the “soluble fraction (log2)” value worked out at 0.21.

As for “HMLTGISALKPTEAFPDEIFYEIFEIEDNIERTQYIESLRNTARQLKRVTEFNNLYKSFVLDYAQRQKQ”, the “soluble fraction (log2)” value is -1.51.

For the sequence “HMLTKAEEQVMDYLWKLEKAFVKDILDEFPEPKPAYTTVSTMVRILEKKGMVGYTAYGKNHQYYPL”, the “soluble fraction (log2)” value is -1.84.

In the case of “HMLTKSELVFDTLKKRIIDGELEPGTELVISRISEEFNVSTIPVREAIKTLASEGLVEMEPHKSAKVAE”, the “soluble fraction (log2)” value is -0.0631.

As for “HMLTKSVLGNQIKVLRLEKGLSQEEFGAPVDLSRSAVSQIESGQMYPSLESIGKIVKYYSTSWDNLVG”, the “soluble fraction (log2)” value was -0.821.

In the case of “HMLTLDEKRRLQIMRVQVALTSLGLYNGRVDGVLNAETKLGLEFFQDLKGLPKSGTMTTPTLNALGVPA”, the “soluble fraction (log2)” value was -0.423.

For the sequence “HMLTLSGPEHAVVRALWPEPELDFDVLIRKTGLPSAQLMTLAMQLEMKKIIRRLPGRRLALMDDIRR”, the “soluble fraction (log2)” value is -1.85.

In the case of “HMLTRSTVNVETGTAAIGLGKLYGVYDMSRKGLKYSFSVDSDAMTKVMEMLLPLGIKSLTVEPPS”, the “soluble fraction (log2)” value is -1.57.

In the case of “HMLTTADLMMVHANSNKAIDYIVTDDNTKLTVDEPVTAKWITTADSIYRAVAYYNKVGDGKAQIVSVGN”, the “soluble fraction (log2)” value is 0.0204.

With “HMLTYPEHVRLRMIELRKTRSLSQSEFGTYLGLSYQTISSLELGRHEWSLAHIQTALLRFELPPNYF”, the “soluble fraction (log2)” value was -4.92.

For “HMLVATFGPTTGWEGREIIWDVDRFILVGHGAVPAAGVLDYDRRGQLIWAQPELRAWVVEVDRWETG”, the “soluble fraction (log2)” value is -1.97.

Turning to “HMLVMTDNVIKAINDLLNYEAAAGIKKKQRYTAYQIYKELSEQGVYHGSRRRMEEVVSKLRVERNQI”, the “soluble fraction (log2)” value is -2.78.

As to “HMLVPWKSANLFKLVEPNFRLAERKIPMLPSADREKLQEIMSDMKDAIVDNDKMALMKLDEELTDFLFDFV”, the “soluble fraction (log2)” value was -1.22.

As for “HMLVSPLDEIPGIGRNRKKTLLNHFGSAKTIEGASLEDLKKVDGISELIAKKIYNYFHLNKNF”, the “soluble fraction (log2)” value is -0.411.

Regarding “HMLWTDTKYVTVPDFVGKEPKEIESSYLYNIEYHGEGTKVISQQPAAFSRTIEGGTVRLYLG”, the “soluble fraction (log2)” value is 0.0884.

For the sequence “HMLYGRRFQVEGLNLERYLRAAADSGIPLKGARRFGRTLTGVAAEEHMAALEALARQGGWLFTPLEAVGAN”, the “soluble fraction (log2)” value was -0.22.

As for “HMLYKNIAKKLRFRINSDEFAIGDVLPTERQLMEEYQASRVSIRKAIDELVAIDLIEKKQGSGTYIKQKEV”, the “soluble fraction (log2)” value was -0.919.

“HMMESLGIRLKRLRKDKGLTQVELGKLSGVTGVTIGYWEKDLNEPGSKALSKLAQALGTTESYLLYGVS”: the “soluble fraction (log2)” value is -0.634.

As to “HMMNNKEIGTRIAVLRKGMGDSQAKLAERLDVSPQAVSKWETGQSLPDIGNLLKLSWLFRTSINHILEGS”, the “soluble fraction (log2)” value was -1.37.

As to “HMNADAPWSPFSPGFTGPMNRPVIGLVTKADLANPQRISLVESWLVQAGAQKVFVTSALENTGVDEMFIFL”, the “soluble fraction (log2)” value is -0.124.

As for “HMNADLDIQNVNGNTPLWEAVMRYRGDGFFIEQLLKNGANPDIKNNYGVSPKSLARTIANYDVRRFFN”, the “soluble fraction (log2)” value is -0.137.

“HMNADSLIGENIRISERVSNMDQTGMAVVHGQEWTVRTRNDNEIIEPGEEAKILAISGVKLIVEK”: the “soluble fraction (log2)” value is -0.119.

For the sequence “HMNAESLIGDRAVVTVAIERNKRGRVDVTGQDWAATTRDGEEIKVGQEVLVVGISGVALIVEER”, the “soluble fraction (log2)” value is -0.426.

Turning to “HMNAIYKFVLGMIGKRSGVVTTLPSKKQVEFQANMLAEKFMQNGIDPNALKSPEQVKNVLANIDQ”, the “soluble fraction (log2)” value is -0.737.

“HMNALVAKYKQGVTEEQQQGQGIIIIKRVVVRDQEAWVYEKKIFDWGGVSYFRDKQRITASTFNQETAL”: the “soluble fraction (log2)” value is -2.86.

“HMNAQLTTQEAADLLNVSRPHLVKLLEDGELPFLRTGKHRRVRLADLLQFKNAREQASVQAMDELSRQAQ”: the “soluble fraction (log2)” value is 0.154.

“HMNARSTSYSDFIARVDKDEVASVRLDGETVTYQAADGTTYTTVKPESDPIAERLIAKGIEVNVVRQ”: the “soluble fraction (log2)” value was -0.49.

Take “HMNASITVPDVRNLTVKQASEQLLASGFTPIPYAATKDGVGNDIVYAQDPPPSVLARSGDQITITYNPA”: the “soluble fraction (log2)” value was found to be 0.0329.

For “HMNASTVTLENFEGAKYDDVYGKYDYQFSVTYEQTDKYESGVIISQKPEAGTKIIKGSQVSLVVAT”, the “soluble fraction (log2)” value was found to be 0.0657.

With “HMNASVIADLFRQTGASVMIHGHTHRPDIHALEANGDAAFRAVLGAWHTEGSMIRVTQDDVTLIAFP”, the “soluble fraction (log2)” value is 0.0376.

“HMNATLEQLTQREREIAVLMAEGLTNAQIGSRLNVSMASVKAHLSHIFTKLGVDNRVSAAMMVL”: the “soluble fraction (log2)” value was -0.654.

As for “HMNATPDMERYWASSAAEGRALEPLYAVSRGDGGEPLWWSPSRAQAERMAREEGGPLTVDRIDPP”, the “soluble fraction (log2)” value was -0.0411.
